Assay results taken from patent US20260209387A1, “SINGLE-DOMAIN ANTIBODY FOR INHIBITION OF NEUTROPHIL ELASTASE ACTIVITY” (UNIVERSITE DE LIEGE, priority 2023, published 2026).
Each block holds one molecule with its values, some of them ahead of it. Peptide text beside a SMILES is read from it. * marks the point of attachment. MeOSuc = COC(=O)CCC(=O)*; CH2Cl = ClC*

What was measured:
hNE = biological target: T1, hNE (Homo sapiens, UniProt P08246); assay: hNE inhibition, hydrolysis of elastin (Elastin-CongoRed); assay type: biochemical
T1 construct: purchased Elastin Products Company (EPC)
T1 sequence (P08246 30-247): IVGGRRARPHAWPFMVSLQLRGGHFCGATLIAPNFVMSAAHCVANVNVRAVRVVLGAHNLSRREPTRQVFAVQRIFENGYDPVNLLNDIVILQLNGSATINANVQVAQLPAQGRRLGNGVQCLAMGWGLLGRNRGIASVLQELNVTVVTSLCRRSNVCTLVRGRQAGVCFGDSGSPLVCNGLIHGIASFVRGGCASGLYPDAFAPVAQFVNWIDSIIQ
Description: 1.6.2. Inhibition of the hydrolysis of elastin, a natural substrate of hNE. […] The samples were incubated for 16 hours at 37° C. with orbital shaking (900 rpm). The samples were then centrifuged at 90′000 g for 30 minutes at 4° C. to separate the insoluble Elastin from the digested and soluble molecule fragments. The soluble fraction was transferred into a 384-wells clear plate and the absorbance of Congo-red was measured at 495 nm in a SpectraMax M2e Microplates Reader (Molecular Devices, California, USA). The absorbance of the samples at different inhibitor: hNE molar ratios was compared to that measured in the absence of inhibitor, to determine the residual hNE activity. A sample of Elastin-Congo red without elastase was used as blank.

[1] = tested on: hNE-induced alveolar-capillary damage; assay: hNE-induced acute lung injury mouse model; assay type: in vivo, mice; details: nasal instillation 15 min prior to hNE 25 μg; molar ratio Nb/HNE 4/1
Description: The in vivo efficacy of NbE201 was determined using a mouse model of acute lung injury induced by nasal instillation of HNE (L agente et al., 2009, American Thoracic Society International Conference Abstracts. (American Thoracic Society), A5668. doi: 10.1164/ajrccm-conference.2009.179.1_MeetingAbstracts.A5668). […]
It was determined with the hemoglobin assay kit (Sigma) and performed according to the manufacturer's instructions. […] A measurement of the optical density at 400 nm allowed the quantification of this stable complex. […]
Histological sections of the lung were digitized using a panoramic scan 2 (3[…]). […] This semi-automated analysis made it possible to quantify the damaged alveolar surface. […] The percentage of injured surface was determined by the ratio: % injured area=(injured area/alveolar area)×100

[2] = biological target: T2, human neutrophil elastase (human, UniProt P08246 30-247, glycans (NAG-NAG-FUC) at N109 and N204, chymotrypsinogen numbering, seen in the crystal); assay: capture of hNE on streptavidin magnetic beads via biotinylated NbE34 (phage panning)
T2 construct: Purified hNE bought from Elastin Products Company; In the crystal, density is defined for I1 to Q218; also called hNE; HNE
T2 sequence: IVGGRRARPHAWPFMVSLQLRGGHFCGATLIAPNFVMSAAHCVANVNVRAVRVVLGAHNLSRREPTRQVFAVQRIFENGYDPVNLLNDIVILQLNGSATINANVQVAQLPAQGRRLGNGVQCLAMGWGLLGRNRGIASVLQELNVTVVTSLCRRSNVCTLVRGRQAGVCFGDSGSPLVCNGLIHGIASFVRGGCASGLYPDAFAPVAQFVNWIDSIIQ
Description: The recovery of the beads after each step was carried out on a magnetic stand for 1.5 ml Eppendorf tubes for two minutes. All the incubation steps took place at room temperature and in a shaker with vertical rotation. Washing steps were carried out with 500 μl phosphate-buffered saline solution with a detergent solution of 0.01% (PBST, PBS with 0.01%, % v/v, Tween 20). First, 0.04 mg of beads were functionalized with 4 μg of chemically biotinylated NbE34 in 1 ml of PBS. After 5 washings, the beads were incubated with 5 μg of hNE in 500 μL of PBS. A negative control tube with magnetic beads functionalized with NbE34 but without hNE was also prepared. Then, the beads in each tube were incubated in 500 μl of blocking buffer. The blocking buffer was casein 0.1% (% w/v), bovine serum albumin 0.1% (% w/v) or protein free-blocking buffer (ThermoFisher Scientific, United States) in rounds 1, 2 and 3, respectively. In the next step, 2×10¹¹ phages from the library were incubated in the positive and the negative tubes and incubated for 1 hour. The beads were washed at least 10 times with PBST (PBS containing 0.05%, % v/v, Tween 20), previous to the elution of phages with 200 μl of triethanolamine (TEA) pH 11 for 10 minutes and neutralization with 200 μl of trisaminomethane hydrochloric acid (Tris-HCl) 1M pH8. […]

[3] = Aggregates detection by Nanoparticle Tracking Analysis; assay type: physicochemical; details: 0.25 mg/ml, after nebulization
Description: 2.3.5 Aggregates Detection. Protein aggregates were visualized by Nanoparticle Tracking Analysis (NTA) (ZetaView, 220 Twin Laser, Particle Metrix, Ammersee, Germany), a technique used for measuring single particle size and concentration. NbE201, NbE201-PEG10 and NbE201-PEG40 solutions (0.25 mg/ml) were analysed before and after nebulization. 11 positions were analysed for which following parameters were used: • Laser wavelength: 488 nm • Scatter, no fluorescence • Sensitivity: 80 • Shutter: 100

[4] = Physical stress (nebulization, agitation, freeze/thaw): concentration by A280 nm before/after centrifugation; assay type: physicochemical; details: for Initial concentration percentage after centrifugation: 10 000 g 10 min
Description: A 0.25 mg/ml solution of NbE201, NbE201-PEG10 or NbE201-PEG40 was prepared and divided in order to apply the following conditions: control, 1 or 4 h of agitation with a magnetic bar, nebulization, 5 or 10 freeze/thaw cycles.
2.3.1 Stability towards agitation. 100 μl of a 0.25 mg/ml ISVDs solution were agitated in a 1 ml glass vial with a 2×5 mm magnetic bar (VWR, Radnor, USA) at 200 rpm during 1 or 4 hours.
2.3.2 Stability towards Nebulization. 300 μl of a 0.25 mg/ml ISVDs solution were nebulized with a MeSH nebulizer (InnoSpire Go, Phillips, Amsterdam, The Netherlands).
2.3.3 Stability towards freezing/thawing. 100 μl of a 0.25 mg/ml ISVDs solution underwent 5 or 10 freeze/thaw (F/T) cycles. Freezing was performed in a −20° C. freezer and thawing was performed at RT.
2.3.4 Concentration measurements. Concentrations and UV spectra were measured by spectrophotometry (NanoDrop 2000/2000c spectrophotometer, ThermoFisher). Concentrations were determined based on the absorbance at 280 nm. NbE201 and NbE201-Cter mass extinction coefficients applied to the measurements were 1.888 and 1.716 (mg/mL)^−1 cm^−1 respectively. Regarding the ISVDs exposed to physical stresses, the concentration was read before and after centrifugation at 10 000 g at 4° C. for 10 min.

[5] = biological target: T3, proteolytic (elastase) activity of cystic fibrosis patient sputa (Homo sapiens, UniProt P08246); assay: Sputum proteolytic activity inhibition, cystic fibrosis sputa; assay type: biochemical; details: exposure time 0
T3 construct: Sputa from patients with cystic fibrosis, COPD or ciliary diskenisia above 18 years old were collected; from tissue; host or cells: expectorated sputum of patients with cystic fibrosis, COPD or ciliary dyskinesia
T3 sequence (P08246 30-267): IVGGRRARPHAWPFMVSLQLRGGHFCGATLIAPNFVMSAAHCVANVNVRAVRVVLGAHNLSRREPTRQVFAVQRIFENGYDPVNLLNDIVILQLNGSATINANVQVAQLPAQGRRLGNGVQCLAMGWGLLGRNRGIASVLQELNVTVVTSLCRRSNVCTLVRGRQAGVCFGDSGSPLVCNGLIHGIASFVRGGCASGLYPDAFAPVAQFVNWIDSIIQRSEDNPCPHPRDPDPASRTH
Description: 2.2.2 Evaluation of the proteolytic activity inhibition in CF, COPD and ciliary diskenisia sputa. […] Sputa collection procedures were evaluated by the local ethic committee (comité d'Ethique Hospitalo-Facultaire des Cliniques universitaires Saint-Luc) and approved under the Belgian registration number B4032021000071.
Sputum proteolytic activity was assessed by following with a spectrophotometer the absorbance at 410 nm of suc-Ala-Ala-Pro-Val-pNA degradation, the chromogenic hNE substrate. Sputa were classified as mucoid, muco-purulent or purulent (Serisier et al., 2009, Respir Res, 10 (1): 63. doi: 10.1186/1465-9921-10-6). According to the experiment, 10 to 20 mg of sputum were weighted in a 96-well plate. ISVDs were then added to the sputum samples and pre-incubated at 37° C. during different periods of time. The hNE substrate was diluted to a concentration of 1 mM in a tris buffer (0.1M tris, 0.5M NaCl, 0.01% Sodium azide (NaN3), pH 7.5) and 50 μl of this solution were added to the wells. The substrate degradation was followed during 50 min. […] Slopes were then calculated from the regression line drawn from the absorbance measurements and were expressed as a percentage of the sputum proteolytic activity without ISVDs.

Molecule: COC(=O)CCC(=O)N[C@@H](C)C(=O)N[C@@H](C)C(=O)N1CCC[C@H]1C(=O)N[C@H](C(=O)CCl)C(C)C [EI3, methyl 4-[[(2S)-1-[[(2S)-1-[(2S)-2-[[(3S)-1-chloro-4-methyl-2-oxopentan-3-yl]carbamoyl]pyrrolidin-1-yl]-1-oxopropan-2-yl]amino]-1-oxopropan-2-yl]amino]-4-oxobutanoate, reference compound] (MeOSuc-AAPV-CH2Cl)
- inhibition of hNE activity, elastin hydrolysis (hNE; [inhibitor]:[hNE] ratio 15): 95%

Molecule: AAT: endogenous glycoprotein, covalent natural inhibitor of neutrophil elastase
- protection against hNE-induced alveolar-capillary damage [1]: protects the lungs from developing alveolar-capillary damage

B2: NbE201-PEG10: NbE201-Cter (linker SPSTPPTPSPSTPP + C-terminal cysteine) conjugated to linear 10 kDa PEG-maleimide (conjugate)
VHH: QVQLQESGGGLVQAGGSLRLSCVVPGRTISLYRMGWFRQAPGKEREFVAGINWSGDMTDYVDSVKGRFTISRDNAKNTVYLEMNSLKPEDTAIYYCTADPKLLPLADSSYGYWGQGTQVTVSSSPSTPPTPSPSTPPC
- average counted particles per frame (NTA) [3]: far below that threshold
- Initial concentration percentage before centrifugation ([4]; Agitation (1 h)): 98 ± 1%
- Initial concentration percentage after centrifugation ([4]; Agitation (1 h)): 97 ± 2%
- Initial concentration percentage before centrifugation ([4]; Agitation (4 h)): 100 ± 1%
- Initial concentration percentage after centrifugation ([4]; Agitation (4 h)): 93 ± 2%
- Initial concentration percentage before centrifugation ([4]; Control): 100 ± 0%
- Initial concentration percentage after centrifugation ([4]; Control): 94 ± 2%
- Initial concentration percentage before centrifugation ([4]; F/T 5x): 99 ± 1%
- Initial concentration percentage after centrifugation ([4]; F/T 5x): 99 ± 1%
- Initial concentration percentage before centrifugation ([4]; F/T 10x): 98 ± 2%
- Initial concentration percentage after centrifugation ([4]; F/T 10x): 98 ± 1%
- Initial concentration percentage before centrifugation ([4]; Nebulization): 85 ± 2% (***)
- Initial concentration percentage after centrifugation ([4]; Nebulization): 85 ± 3%
- sputum proteolytic activity inhibition at time 0, compared with NbE201 [5]: No significant difference

More lines, now with the values ahead:

- inhibition of hNE activity, elastin hydrolysis (hNE; [inhibitor]:[hNE] = 50): 40%
Molecule: CC(C)(C)C(=O)Oc1ccc(S(=O)(=O)Nc2ccccc2C(=O)NCC(=O)O)cc1 [Sivelestat, reference compound]

- binding result [2]: binds
B1: NbE34 (VHH)
VHH: QVQLQESGGGLVQPGGSLRLSCAASGFTLDYHAIGWFRQAPGKEREGVSCISSSGGRADYADSVKGRFTISRDNAKNTVYLQMNSLKPEDTAVYYCATRCAVVGGTYYYGMDYWGKGTQVTVSS
modifications: chemically biotinylated (sites not given)
notes: It was used to capture hNE on streptavidin beads for the panning; also called biotinylated capture ISVD NbE34
